Experimental findings from the Human Domainome abundance scans (Beltran et al. 2025) are described below.

± gives the uncertainty stated by the source.

B1: Protein maelstrom homolog, residues 3 to 71; numbered along this chain, Q96JY0 (parent)
chain: NRKASRNAYYFFVQEKIPELRRRGLPVARVADAIPYCSSDWALLREEEKEKYAEMAREWRAAQGKDPGP

Variants of B1 are the subject of this data set. The data set can be described thus: abundance fitness (aPCA) (normalised: wild type 0, dead -1); higher = more abundant; growth selection in yeast, the domain comes from the species named. The note with it: Homo sapiens.
For NRKASRNAYYFFVQEKIPELRRRGLPVARVADANPYCSSDWALLREEEKEKYAEMAREWRAAQGKDPGP [I34N], the abundance fitness was -0.06 ± 0.15.

As to NRKASRNAYYFFVQEKIPELRRRGLPVARVADASPYCSSDWALLREEEKEKYAEMAREWRAAQGKDPGP [I34S], the abundance fitness was -0.229 ± 0.078. The figure for NRKASRNAYYFFVQEKIPELRRRGLPVARVADAKPYCSSDWALLREEEKEKYAEMAREWRAAQGKDPGP [I34K] is 0.406 ± 0.13. Consider NRKASRNAYYFFVQEKIPELRRRGLPVARVADAVPYCSSDWALLREEEKEKYAEMAREWRAAQGKDPGP [I34V], for which the abundance fitness is -0.137 ± 0.06. The figure for NRKASRNAYYFFVQEKIPELRRRGLPVARVADACPYCSSDWALLREEEKEKYAEMAREWRAAQGKDPGP [I34C] is -0.203 ± 0.14; for NRKASRNAYYFFVQEKIPELRRRGLPVARVADATPYCSSDWALLREEEKEKYAEMAREWRAAQGKDPGP [I34T] it is -0.19 ± 0.11. The figure for NRKASRNAYYFFVQEKIPELRRRGLPVARVADAHPYCSSDWALLREEEKEKYAEMAREWRAAQGKDPGP [I34H] is -0.307 ± 0.25; for NRKASRNAYYFFVQEKIPELRRRGLPVARVADAWPYCSSDWALLREEEKEKYAEMAREWRAAQGKDPGP [I34W] it is -0.04 ± 0.062. The figure for NRKASRNAYYFFVQEKIPELRRRGLPVARVADAAPYCSSDWALLREEEKEKYAEMAREWRAAQGKDPGP [I34A] is -0.133 ± 0.065.

On to NRKASRNAYYFFVQEKIPELRRRGLPVARVADARPYCSSDWALLREEEKEKYAEMAREWRAAQGKDPGP [I34R], for which the abundance fitness was -0.148 ± 0.039.

Consider NRKASRNAYYFFVQEKIPELRRRGLPVARVADAIPYCMSDWALLREEEKEKYAEMAREWRAAQGKDPGP [S38M], for which the abundance fitness is -0.154 ± 0.2. Consider NRKASRNAYYFFVQEKIPELRRRGLPVARVADAIPYCRSDWALLREEEKEKYAEMAREWRAAQGKDPGP [S38R], for which the abundance fitness worked out at 0.171 ± 0.17.

With NRKASRNAYYFFVQEKIPELRRRGLPVARVADAIPYCQSDWALLREEEKEKYAEMAREWRAAQGKDPGP [S38Q], the abundance fitness amounted to 0.155 ± 0.24. The figure for NRKASRNAYYFFVQEKIPELRRRGLPVARVADAIPYCYSDWALLREEEKEKYAEMAREWRAAQGKDPGP [S38Y] is -0.06 ± 0.21; for NRKASRNAYYFFVQEKIPELRRRGLPVARVADAIPYCLSDWALLREEEKEKYAEMAREWRAAQGKDPGP [S38L] it is -0.132 ± 0.2. The figure for NRKASRNAYYFFVQEKIPELRRRGLPVARVADAIPYCVSDWALLREEEKEKYAEMAREWRAAQGKDPGP [S38V] is 0.073 ± 0.28; for NRKASRNAYYFFVQEKIPELRRRGLPVARVADAIPYCGSDWALLREEEKEKYAEMAREWRAAQGKDPGP [S38G] it is 0.193 ± 0.17; for NRKASRNAYYFFVQEKIPELRRRGLPVARVADAIPYCFSDWALLREEEKEKYAEMAREWRAAQGKDPGP [S38F] it is -0.223 ± 0.2. Then NRKASRNAYYFFVQEKIPELRRRGLPVARVADAIPYCCSDWALLREEEKEKYAEMAREWRAAQGKDPGP [S38C], with -0.337 ± 0.22. Turning to NRKASRNAYYFFVQEKIPELRRRGLPVARVADAIPYCSLDWALLREEEKEKYAEMAREWRAAQGKDPGP [S39L], the abundance fitness was -0.137 ± 0.061. Then NRKASRNAYYFFVQEKIPELRRRGLPVARVADAIPYCSFDWALLREEEKEKYAEMAREWRAAQGKDPGP [S39F], with -0.016 ± 0.16; and NRKASRNAYYFFVQEKIPELRRRGLPVARVADAIPYCSMDWALLREEEKEKYAEMAREWRAAQGKDPGP [S39M], with 0.129 ± 0.074; and NRKASRNAYYFFVQEKIPELRRRGLPVARVADAIPYCSPDWALLREEEKEKYAEMAREWRAAQGKDPGP [S39P], with 0.093 ± 0.089. The figure for NRKASRNAYYFFVQEKIPELRRRGLPVARVADAIPYCSGDWALLREEEKEKYAEMAREWRAAQGKDPGP [S39G] is 0.13 ± 0.054; for NRKASRNAYYFFVQEKIPELRRRGLPVARVADAIPYCSCDWALLREEEKEKYAEMAREWRAAQGKDPGP [S39C] it is -0.174 ± 0.096; for NRKASRNAYYFFVQEKIPELRRRGLPVARVADAIPYCSADWALLREEEKEKYAEMAREWRAAQGKDPGP [S39A] it is -0.058 ± 0.065. For the variant NRKASRNAYYFFVQEKIPELRRRGLPVARVADAIPYCSHDWALLREEEKEKYAEMAREWRAAQGKDPGP [S39H], the abundance fitness came to 0.109 ± 0.11. Then NRKASRNAYYFFVQEKIPELRRRGLPVARVADAIPYCSEDWALLREEEKEKYAEMAREWRAAQGKDPGP [S39E], with -0.073 ± 0.097. The figure for NRKASRNAYYFFVQEKIPELRRRGLPVARVADAIPYCSDDWALLREEEKEKYAEMAREWRAAQGKDPGP [S39D] is 0.07 ± 0.16; for NRKASRNAYYFFVQEKIPELRRRGLPVARVADMIPYCSSDWALLREEEKEKYAEMAREWRAAQGKDPGP [A33M] it is -0.707 ± 0.1; for NRKASRNAYYFFVQEKIPELRRRGLPVARVADTIPYCSSDWALLREEEKEKYAEMAREWRAAQGKDPGP [A33T] it is -0.619 ± 0.11. In the case of NRKASRNAYYFFVQEKIPELRRRGLPVARVADYIPYCSSDWALLREEEKEKYAEMAREWRAAQGKDPGP [A33Y], the abundance fitness is -0.713 ± 0.18. The figure for NRKASRNAYYFFVQEKIPELRRRGLPVARVADRIPYCSSDWALLREEEKEKYAEMAREWRAAQGKDPGP [A33R] is -0.83 ± 0.083.

In the case of NRKASRNAYYFFVQEKIPELRRRGLPVARVADQIPYCSSDWALLREEEKEKYAEMAREWRAAQGKDPGP [A33Q], the abundance fitness was -1.05 ± 0.17. Then NRKASRNAYYFFVQEKIPELRRRGLPVARVADLIPYCSSDWALLREEEKEKYAEMAREWRAAQGKDPGP [A33L], with -0.47 ± 0.068.

In the case of NRKASRNAYYFFVQEKIPELRRRGLPVARVADVIPYCSSDWALLREEEKEKYAEMAREWRAAQGKDPGP [A33V], the abundance fitness is -0.541 ± 0.078. The figure for NRKASRNAYYFFVQEKIPELRRRGLPVARVADWIPYCSSDWALLREEEKEKYAEMAREWRAAQGKDPGP [A33W] is -0.665 ± 0.17; for NRKASRNAYYFFVQEKIPELRRRGLPVARVADSIPYCSSDWALLREEEKEKYAEMAREWRAAQGKDPGP [A33S] it is -0.588 ± 0.088; for NRKASRNAYYFFVQEKIPELRRRGLPVARVADPIPYCSSDWALLREEEKEKYAEMAREWRAAQGKDPGP [A33P] it is -0.654 ± 0.14.
